System: MS2 coat protein
Test: apparent KD of MS2 coat protein; designed switch direction (-1 OFF switch, 1 ON switch): 1; higher = weaker reporter binding
How it was run: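 RNA switches sharing common flanks were transcribed by stalled E. coli RNA polymerase on Illumina chips. A doubling series of SNAP-549-labelled MS2 coat protein, from 0.7 or 1.5 nM to 3 µM, was applied in Tris-HCl pH 7.5 buffer with KCl, MgCl2, BSA, DTT, tRNA and Tween-20. Each step lasted 0.8–1.5 h at the bottom of the series and 10–20 min at the top. Normalised cluster fluorescence was curve-fitted, giving apparent KD as the per-design median over clusters.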

[1] = input ligand: microRNA oligo, concentration not stated
[2] = Eterna round: R95, input ligand: FMN 200 uM
[3] = Eterna round: R95, input ligand: microRNA oligo, concentration not stated
[4] = Eterna round: R95, input ligand: none

Sequence | apparent KD of MS2 coat protein (input ligand: FMN 200 uM) [nM] | apparent KD of MS2 coat protein [1] [nM] | apparent KD of MS2 coat protein (input ligand: none) [nM] | apparent KD of MS2 coat protein [2] [nM] | apparent KD of MS2 coat protein [3] [nM] | apparent KD of MS2 coat protein [4] [nM]
UGGCUCAGACGAGGAUAUGAUCAUGGCGCUUCGGCGCAUACAUGAGGAUCACCCAUGUAAAGUGAUCAGAAGGUGUCUGAGCCA [SSNG2/7-B2] (Eterna round: R96, puzzle: Same State NG 2) | 13 | 11.6 | 14.5 | – | – | –
UGGCUCAGACUAGGAUAUAUGCGAUCACAUGAGGAUCACCCAUGUCUCGAGCUUCGGCUCGAGGCAUAGAAGGAGUCUGAGCCU [SSNG2/4-D3] (Eterna round: R96, puzzle: Same State NG 2) | 14.8 | 35.5 | 46.7 | – | – | –
UGGUUGGAGAGAGAGGAUAUCCAAUUUUCAACAUGAGGAUCACCCAUGUAGAACGUAGGUAAUUGGGAGAAGGCUCAAGAGACAU [salish99_ss2_r3_100] (puzzle: Same State 2) | – | – | – | 26.9 | 14.5 | 23.5
UGUACCUUCACAGGAUAUCAUGCGAAAAUUGCGUGAGAAGGGUGAAUACGGUGUUAAUAAAAGCACAUGAGGAUCACCCAUGUA [SameState NG1 #56] (Eterna round: R96, puzzle: Same State NG 1) | 303 | 246 | 471 | – | – | –
UGUACUUUCAUAGGAUAUCAUGCGAAAAUUGCGUGAGAAGGGUGAAUACUGUCUUUCUAAGAGUACAUGAGGAUCACCCAUGUA [SameState NG1 #63] (Eterna round: R96, puzzle: Same State NG 1) | 77.3 | 80.2 | 67.5 | – | – | –
UGUUAACAUGAGGAUCACCCAUGUCAAAUGAAUCGAGGAUAUGGAAAGUAAUAAGAUGAACUAGAAGGUGAAGUUG [Altered State 1-19 - Jieux - Same State 1] (puzzle: Same State 1) | – | – | – | 37.1 | 55.7 | 57.3
UGUUAUUAGACAGGAUAUUGAAUGUUAAGUAUUAACAUGAGGAUCACCCAUGUAUUUGAUUGGUACAAGAAGGGUCAUGUUUGU [JR_SSNG2_Sub015] (Eterna round: R96, puzzle: Same State NG 2) | – | 303 | – | – | – | –
UGUUGUAUUACAGGAUAUCUAGUAUUUUUAUUCAGAGAAGGGUAUUCACAUGAGGAUCACCCAUGUAUAUACGAGGAAGUUGUG [JMF's solution 56] (Eterna round: R96, puzzle: Same State NG 1) | – | 34.1 | – | – | – | –
UGUUGUAUUACAGGAUAUCUAUGAUUUUUACUUAGAGAAGGGUAUUCACAUGAGGAUCACCCAUGUAUAUACGAGGAAGUUGUG [JMF's solution 67] (Eterna round: R96, puzzle: Same State NG 1) | 47.2 | 35.1 | 44.2 | – | – | –
UGUUGUAUUACAGGAUAUCUAUUAGUUUUGUUUAGAGAAGGGUAUUCACAUGAGGAUCACCCAUGUAUAUACGAGGAAGUUGUG [JMF's solution 97] (Eterna round: R96, puzzle: Same State NG 1) | – | 40.8 | – | – | – | –
UGUUGUAUUACAGGAUAUCUAUUAUUUUUAUUUAGAGAAGGGUAUUCACAUGAGGAUCACCCAUGUAUAUACGAGGAAGAUGUG [JMF's solution 5] (Eterna round: R96, puzzle: Same State NG 1) | – | 60.4 | – | – | – | –
UGUUGUAUUACAGGAUAUCUAUUGUUUUUACUUAGAGAAGGGUAUUCACAUGAGGAUCACCCAUGUAUAUACGAGGAAGUUGUG [JMF's solution 83] (Eterna round: R96, puzzle: Same State NG 1) | 39.2 | 31 | 41.8 | – | – | –
UGUUGUUAACUAGGAUAUGGUCACAUGAGGAUCACCCAUGUAAUGUCGAUGCUAUGUGGAUUUGAUCAGAAGGAGUGGUUAACA [SameState NG2 #99] (Eterna round: R96, puzzle: Same State NG 2) | 66.4 | 58.8 | 58.4 | – | – | –
UUAAUAAAUCAAGGAUAUCACGUCGAAUAGACGUGAGAAGGUGAUCAUAACAUGAGGAUCACCCAUGUAUUACAUGAAUAUUAA [SSNG1/1-B1] (Eterna round: R96, puzzle: Same State NG 1) | 522 | 40 | 512 | – | – | –
UUAAUAAAUCAAGGAUAUCACGUCGAUUAGACGUGAGAAGGUGAUCAUAACAUGAGGAUCACCCAUGUAUUACAUGAAUAUUAA [SSNG1/1-B2] (Eterna round: R96, puzzle: Same State NG 1) | 1810 | 721 | 659 | – | – | –
UUAAUAAUGUAAGGAUAUACAUGAGGAUUUCUCGUAGAAGGUACAUUACAUGAGGAUCACCCAUGUGGGUGUCAGAAGACGCCA [Mat - Same State NG 1 - JL mod - D13] (Eterna round: R96, puzzle: Same State NG 1) | 143 | 953 | 275 | – | – | –
UUAAUGAUGUUAGGAUAUACAUGAGGAAUCCUCGUAGAAGGAACAUGACAUGAGGAUCACCCAUGUAGCGCUCCGUAGAGCGCA [JL SSNG1 1.18] (Eterna round: R96, puzzle: Same State NG 1) | 2460 | 18.5 | 60.3 | – | – | –

— the supplement of paper PMC9170038
